Test results published in patent publication US20260034233A1 (SUNMED THERAPEUTIC, published 2026).

Molecular target: T1, human Galectin-3 (human, UniProt P17931 2-250, limits assumed)
T1 construct: also called Human GAL-3; hGal-3
Assay: Carterra LSA SPR epitope binning, antibody on chip, hGal-3 injected
Protocol: The purpose of this study is to determine the epitope binning of antibodies against human Gal-3. Binning assay was conducted to characterize epitopes of the anti-Gal-3 antibodies using a Carterra LSA instrument. All the antibodies were constructed in hIgG4 backbone. Antibodies as ligands were covalently linked to a HC200M chip. The antigen hGal-3 as the analyte was injected to flow cells to bind to the captured ligands. Competitive binning was programmed to determine if two mAbs can bind simultaneously to the same antigen.
Epitope binning assay procedure. An array of antibodies as ligand were coupled to the chip surface HC200M using the Multichannel PH with the running buffer (25 mM MES buffer). The NHS/EDC activation time and coupling time was set at 5 min and 15 min respectively. The SFC then docked onto the chip, and in each cycle, antigen human Galectin-3 was injected across the entire Ab array, with association time of 5 min, followed by a single antibody as analyte with association time of 5 min. After 1 min dissociation, regeneration buffer (pH 2.0, 10 mM Glycine) was applied for 20 s for three times. The data were analyzed by Caterra Epitope Data Analysis Software.

T1 sequence (P17931 2-250 limits assumed): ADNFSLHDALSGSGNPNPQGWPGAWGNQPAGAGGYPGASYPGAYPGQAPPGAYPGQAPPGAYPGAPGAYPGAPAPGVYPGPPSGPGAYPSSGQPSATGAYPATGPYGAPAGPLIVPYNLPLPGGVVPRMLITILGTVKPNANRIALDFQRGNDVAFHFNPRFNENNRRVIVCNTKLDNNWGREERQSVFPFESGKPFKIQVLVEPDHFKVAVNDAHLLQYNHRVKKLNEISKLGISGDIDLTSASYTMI

| binding result | Binder |
| --- | --- |
| binds | 1104SBC1068-335 (antibody, IgG4, V domains shown) VH: QIQLVQSGPELKKPGETVKISCKASGYIFTNYGMNWVKQAPGKGLKWMGWINTYSGEPTYVDDFKGRFVFSLETSASTAYLQINNLKNEDMATYFCARGTVVGFDYWGQGTTLTVSS VL: not shown |
| binds | 1220SBC1068-186 (antibody, IgG4, V domains shown) VH: EVQLQQSGPELVKPGASMKMSCKASGYSFTGYTMNWVKQSHGKNLEWIGLISPYSGGTNYNQKFKGKATLTVDKSSSTAYMEVFSLTSEDSGVYYCARSGFITTGVATNFDVWGAGTTVTVSS VL: DIVMTQSHKFMSTSVGDRVSITCKASQDVSTAVAWYQQRPGQSPKLLIYSASNRYTGVPDRFTGSGSGTDFTFTISSMQAEDLAIYYCQQHYSTPRTFGGGTKLEIK |
| binds | 1220SBC1068-035 (antibody, IgG4, V domains shown) VH: EVQLQQSGPELVKPGASMKISCKASGYAFTGYTMNWVKQSHGKNLEWIGLISPYSGGTNYNQRFKGKATFTVDKSSSTAYMELLSLTSEDSGVYYCARSGFITTGVPTNFDVWGAGTTVTVSS VL: DIVMTQSHKFMSTSVGDGVNITCKASQDVSTAVAWYQQKPGQSPRLLIYSASYRYTGVPDRFTGSGSGTDFTFTISSMQAEDLAVYYCQQHYTTPRTFGGGTKLEIK |
| binds | 1104SBC1068-033 (antibody, IgG4, V domains shown) VH: DVQLQESGPGLVKPSQSLSLTCTVTGYSITSDYAWNWIRQFPGNKLEWMGYISYSGSTSYNPSLKSRISITRDASKNQFFLQLNSVTTEDTATYYCAREGGRGGTEGYYFDYWGQGTTLTVSS VL: NIVLTQSPASLAVSLGQRATISCRASESVDSYGNSFMHWYQQKPGQPPKLLIYLASNLESGVPARFSGSGSRTDFTLTIDPVEADDAATYYCQQNNEDPLTFGAGTKLELK |
| binds | 1104SBC1068-378 (antibody, IgG4, V domains shown) VH: QIQLVQSGPELKKPGETVKISCKASGYTFTNYGMNWVKQAPGKGLKWMGWINTYTGEPTYADDFKGRFAFSLETSASTAYLQINNLKNEDTATYFCARWDDYDGFAYWGQGTLVTVSA VL: DIVLTQSPATLSVTPGDSVSLSCRASQSISNNLHWYQQKSHESPRLLIKYASQSISGIPSRFSGSGSGTDFTLSINSVETEDFGMYFCQQSNSWPLTFGAGTKLELK |
| binds | 1220SBC1068-022 (antibody, IgG4, V domains shown) VH: EVKLVESGGGLVQPGGSRKLSCAASGFTFSDYGMAWFRQAPGKGPEWVAFISNLAYSVYYADTVTGRFTISRENAKNTLFLEMSSLRSEDTAIYYCTRDRGLRESMDYWGQGTSVTVSS VL: DIVMTQAAPSVPVTPGESVSISCRSSKSLLHNNGNTYLCWFLQRPGQSPQLLIYRMSDLASGVPDRFSGSGSGTAFTLRISRVEAEDVGVYYCMQHLEYPYTFGGGTKLEIK |
| binds | 1220SBC1068-058 (antibody, IgG4, V domains shown) VH: EVKLVESGGGLVQPGGSRKLSCAASGFTFSDYGMAWFRQAPGKGPEWVAFISNLAYSVYYADTVTGRFTISRENAKNTLYLEMNSLRSEDTAIYYCTRDRGLRETMDYWGQGTSVTVSS VL: DIVMTQAAPSVPVTPGESVSISCRSSKSLLHNNGNTYLCWFLQRPGQSPQLLIYRMSNLASGVPDRFSGSGSGTAFTLRISRVEAEDVGVYYCMQHLEYPYTFGGGTKLEIK |
| binds | 1220SBC1068-056 (antibody, IgG4, V domains shown) VH: EVKLVESGGGLVQPGGSRKLSCAASGFTFSDYGMAWFRQAPGKGPEWVAFISNLAYSVYYADTVTGRFTISRENAKNTLYLEMSSLRSEDTAIYYCTRDRGLRESMDYWGQGTSVTVSS VL: DIVMTQAAPSVPVTPGESVSISCGSSKSLLHKNGNTYLCWFLQRPGQSPQLLIYRMSNLASGVPDRFSGSGSGTAFTLRISSVEAEDVGIYYCMQHLEYPYTFGGGTKLEIK |
| binds | 1220SBC1068-210 (antibody, IgG4, V domains shown) VH: EVKLLESGGGLVQPGGSLKLSCAASGFDFSRYWMSWVRQAPGKGLEWIGEINPDSSTIDLTPSLKDNFIISRDNAKNALYLQMSKVRSEDTALYYCTRPYYGYYWGQGTLVTVSA VL: DIVMTQSPSSLTVTAGEKVTMNCRSSQSLLNSTNQKNYLTWYQQRPGQPPKLLIYWASTRESGVPDRFTGSGSGTDFTLTISTVQAEDLAVYYCQNDYTSPFTFGSGTKLEIK |
| binds | 1220SBC1068-164 (antibody, IgG4, V domains shown) VH: EVKLLESGGGLVQPGGSLKLSCAASGFDFSRYWMSWVRQAPGKGLEWIGEISPDSSTINYTASLKDKFNISRDNAKNTLYLQMSKVRSEDTALYYCARPYYGYYWGQGTLVTVSE VL: DIVMTQSPSSLTVTAGEKVTMSCKSSQSLFNSGNQKNYLTWYQQKPGQPPKLLIYWAYTRESGVPDRFTGSGSGTDFTLTIHGVQAEDLAVYYCHNDYTSPFTFGSGTKLEMK |
| binds | 1220SBC1068-129 (antibody, IgG4, V domains shown) VH: EVKLLESGGDLVQPGGSLKLSCAASGFDFSRFWMSWVRQAPGKGLEWIGEINPDSSTITYTPSLKDKFIISRDNAKSSLYLQMSKVTSEDTALYYCARPYYGYYWGQGTLVTVSA VL: DIVMTQSPSSLTVTAGKEVTMSCKSSQSLLNSTNQKNYLTWYQQKPGQSPKLLIYWASTRDSGVPDRFTGSGSGTDFTLTISSVQAEDLAIYYCHNDYISPFTFGSGTKLEIK |
| binds | 1220SBC1068-099 (antibody, IgG4, V domains shown) VH: EVKLLESGGGLVQPGGSLKLSCAASGFDFSRYWMTWVRQAPGKGLEWIGEINPHSSTITYTPSLKDKFIISRDNAKNTLYLQMSKVSSEDTALYYCARPYYGYYWGQGTLVTVSA VL: DIVMTQSPSSLTVTAGEKVTMSCKSSQSLLNSGNQKIYLTWYQQKPGQPPKLLIYWASIRESGVPDRFTGSGSGTDFTLTISSVQAEDLAVYYCQNDYSSPFTFGSGTKLEIK |
| binds | 1220SBC1068-041 (antibody, IgG4, V domains shown) VH: EVKLLESGGGLVQPGGSLKLSCAASGFDFSRFWMSWVRQAPGKGLEWIGEISPDSNTIDLTPSLKDNFIISRDNAKNALFLQMSKVRSEDTALYYCTRPYYGYYWGQGTLVTVSA VL: DIVMTQSPSSLTVTAGEKVTMNCRSSQSLFNSTNQKNYLTWYQQKPGQPPKLLIYWASSRESGVPDRFTGSGSGTDFTLTISTVQTEDLAVYYCQNDYTSPFTFGSGTRLEIK |
| binds | 1220SBC1068-274 (antibody, IgG4, V domains shown) VH: EVKLLESGGGLVQPGGSLKLSCAASGFDFSRYWMSWVRQAPGKGLEWIGEISPDSNTIDLTPSLKDNFIISRDNAKNALYLQMSKLRSEDTALYYCTRPYYGYYWGQGTLVTVSA VL: DIVMTQSPSSLTVTAGEKVTMNCRSSQSLLNSTNQKNYLTWYQQKPGQPPKLLIYWASTRESGVPDRFTGSGSGSDFTLTISTVQAEDLAVYYCQNDYTSPFTFGSGTKLEIK |
| binds | 1220SBC1068-098 (antibody, IgG4, V domains shown) VH: EVKLLESGGGLVQPGGSLKLSCAASGFDFSRYWMSWVRQAPGKGLEWIGEISPDSSTIDLTPSLKDNFIISRDNAKNALYLQMSKVKSEDTALYYCTRPYHGYYWGQGTLVTVSA VL: DIVMTQSPSSLTVTAGEKVTMNCRSSQSLLNSTNQKNYLTWYQQKPGQPPKLLIYWASTKESGVPDRFTGSGSGTDFTLTINTVQAEDLAVYYCQNDYTSPFTFGSGTKLEIK |
| binds | 1220SBC1068-097 (antibody, IgG4, V domains shown) VH: EVKLLESGGGLVQPGGSLKLSCAASGFDFSRYWMSWVRQAPGKGLEWIGEINPDSSTIDLTPSLKDNFIISRDNAKNALYLQMSKVKSEDTALYYCTRPYHGYYWGQGTLVTVSA VL: DIVMTQSPSSLTVTAGEKVTMNCRSSQSLLNSTNQKNYLTWYQQKPGQPPKLLIYWASTRESGVPDRFTGSGSGTDFTLTINTVQAEDLAIYYCQNDYTSPFTFGSGTKLEIK |
| binds | 1104SBC1068-365 (antibody, IgG4, V domains shown) VH: QIQLVQSGPELKKPGETVKISCKASGYTFTNYGMNWVKQAPGKGLKWMGWINTNTGEPTYSEEFKGRFAFSLETSASTAYLQINNLKNEDTATYFCGRSSYYAMDYWGQGTSVTVSS VL: not shown |
| binds | 1220SBC1068-063 (antibody, IgG4, V domains shown) VH: EVNLLESGGGLVQPGGSLKLSCEASGFDFSRFWMSWVRQTPGEGLEWIGEISPNSSTIHQTPSLKDRFIISRDNAKNTLFLQMTKVTSDDSALYYCARPYYGYYWGHGTLVTVSA VL: DIVMTQSPSSLTVTAGEKVTMSCKSSQSLLSSINQKNYLTWYQQKPGQPPKLLIYWATSRESGVPDRFTGSGSGTDFTLTISSLQAEDLAVYYCHNDYSYPFTFGSGTRLEIK |
| binds | 1220SBC1068-197 (antibody, IgG4, V domains shown) VH: EVNLLESGGGLVQPGGSLKLSCEASGFDFSRFWMSWVRQTPGEGLEWIGEISPNSSTIHQTPSLKDKFFISRDNAKSTLFLQMTNVTSEDSALYYCARPYYGYYWGHGTLVTVSA VL: DIVMTQSPSSLTVTAGEKVTMSCKSSQSLLNSINQKNYLTWYQQKPGQPPKLLIYWATFRESGVPDRFTGSGSGTDFTLTISGLQAEDLAVYYCHNDYSYPFTFGSGTRLEIK |
| binds | 1104SBC1068-374 (antibody, IgG4, V domains shown) VH: QIQLVQSGPELKKPGETVKISCKASGYTFTNYGMNWVKQAPGKGLKWMGWINTYTGEPTYADDFKGRFAFSLETSASTAYLQINNLKNEDMATYFCARYAMDYWGQGTSVTVSS VL: QAVVTQESALTTSPGGTVILTCRSSTGAVTTSNYANWVQEKPDHLFTGLIGGTSNRAPGVPVRFSGSLIGDKAALTITGAQTEDDAMYFCALWYSTHYVFGGGTKVTVL |
